Source: publication PMC10202384

Biological target: recombinant monomeric RBD of the SARS-CoV-2 spike protein, tag cleaved, labelled with Alexa Fluor 488 (SARS-CoV-2) (UniProt P0DTC2)
Test: fluorescence polarisation

Substance: platelet-derived purified human αIIbβ3 protein (from UniProt P05106 27-788) (complex)
- Kd: 96 nM
- stoichiometry N: 1.3
